Target: HIV-1 CRF07_BC gp120 recombinant protein (HIV-1 CRF07_BC)
Assay: SPR; format not shown (protocol in the supplement)

recombinant human galectin-3 (from UniProt P17931 1-250)
Kd: 7 nM
